From article doi:10.1101/2022.08.10.503460

What was measured:
[1] = molecular target: full-length Cdh23 EC1-27; assay: AFM force-clamp spectroscopy
[2] = molecular target: Cdh23 EC1-5; assay: AFM force-clamp spectroscopy
[3] = molecular target: Pcdh15 EC1-11 PICA; assay: AFM force-clamp spectroscopy
[4] = molecular target: Mouse Cdh23 EC1-2 (mouse) (UniProt Q99PF4); assay: AFM force-clamp spectroscopy
[5] = molecular target: Pcdh15 EC1-11 PICA

Sequence of Mouse Cdh23 EC1-2 (mouse) (Q99PF4 24-228): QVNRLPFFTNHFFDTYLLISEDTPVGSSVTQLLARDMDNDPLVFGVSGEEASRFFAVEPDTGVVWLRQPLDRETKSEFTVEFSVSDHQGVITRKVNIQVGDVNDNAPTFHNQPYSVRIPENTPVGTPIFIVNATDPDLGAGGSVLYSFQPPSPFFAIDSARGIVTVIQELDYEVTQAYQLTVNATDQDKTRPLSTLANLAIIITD

## Mouse Pcdh15 EC1-2 (from UniProt Q99PJ1 27-259) (domain or fragment)
[1]
  zero-force lifetime: 10 s
[2]
  zero-force lifetime: 1.5 s

## Cdh23 EC1-27 Fc dimer (Fc fusion)
[3]
  intrinsic lifetime at no force (τ0): 30 s

## Pcdh15 EC1-2 (R113G), Q99PJ1 27-259 (domain or fragment; other documents disagree on this pair)
[4]
  koff: 0.3 s⁻¹

## Pcdh15 EC1-11 PICA (domain or fragment)
[5]
  stoichiometry N: 2
